Reference: patent publication US20230137139A1, “BIOSYNTHESIS OF CANNABINOIDS AND C[…]” (priority 2020, published 2023)

B1: t865755 (protein)
chain: MGNTTSIAGRDCLISALGGNSALAVFPNELLWTADVHEYNLNLPVTPAAITYPETAAQIAGVVKCASDYDYKVQARSGGHSFGNYGLGGADGAVVVDMKHFTQFSMDDETYEAVIGPGTTLNDVDIELYNNGKRAMAHGVCPTIKTGGHFTIGGLGPTARQWGLALDHVEEVEVVLANSSIVRASNTQNQDVFFAVKGAAANFGIVTEFKVRTEPAPGLAVQYSYTFNLGSTAEKAQFVKDWQSFISAKNLTRQFYNNMVIFDGDIILEGLFFGSKEQYDALGLEDHFAPKNPGNILVLTDWLGMVGHALEDTILKLVGNTPTWFYAKSLGFRQDTLIPSAGIDEFFEYIANHTAGTPAWFVTLSLEGGAINDVAEDATAYAHRDVLFWVQHFMVNPVGPISDTTYEFTDGLYDVLARAVPESVGHAYLGCPDPRMEDAQQKYWRTNLPRLQELKEELDPKNTFHHPQGVMPA
modifications: expressed in S. cerevisiae strain
B2: t865742 (protein)
chain: MGNTTSIAGRDCLISALGGNSALAVFPNELLWTADVHEYNLNLPVTPAAITYPETAAQIAGVVKCASDYDYKVQARSGGHSFGNYGLGGADGAVVVDMKHFTQFSMDDETYTAVIGPGTTLNDVDIELYNNGKRAMAHGVCPTIKTGGHFTIGGLGPTARQWGLALDHVEEVEVVLANSSIVRASNTQNQDVFFAVKGAAANFGIVTEFKVRTEPAPGLAVQYSYTFNLGSTAEKAQFVKDWQSFISAKNLTRQFYNNMVIFDGDIILEGLFFGSKEQYDALGLEDHFAPKNPGNILVLTDWLGMVGHALEDTILKLVGNTPTWFYAKSLGFRQDTLIPSAGIDEFFEYIANHTAGTPAWFVTLSLEGGAINDVAEDATAYAHRDVLFWVQLFMVNPVGPISDTTYEFTDGLYDVLARAVPESVGHAYLGCPDPRMEDAQQKYWRTNLPRLQELKEELDPKNTFHHPQGVMPA
B3: t865718 (protein)
chain: MGNTTSIAGRDCLISALGGNSALAVFPNELLWTADVHEYNLNLPVTPAAITYPETAAQIAGVVKCASDYDYKVQARSGGHSFGNYGLGGADGAVVVDMKHFTQFSMDDETYEAVIGPGTTLNDVDIELYNNGKRAMAHGVCPTIKTGGHFTIGGLGPTARQWGLALDHVEEVEVVLANSSIVRASNTQNQDVFFAVKGAAANFGIVTEFKVRTEPAPGLAVQYSYTFNLGSTAEKAQFVKDWQSFISAKNLTRQFYNNMVIFDGDIILEGLFFGSKEQYDALGLEDHFAPKNPGNILVLTDWLGMVGHALEDTILKLVGNTPTWFYAKSLGFRQDTLIPSAGIDEFFEYIANHTAGTPAWFVTLSLEGGAINDVAEDATAYAHRDVLFWVQLFMVNPVGPISDTTYEFTDGLYDVLARAVPESVGHAYLGCPDPRMEDAQQKYWRTNLPRLQELKEELDPKNTFHHPQGVMRA
B4: t865724 (protein)
chain: MGNTTSIAGRDCLISALGGNSALAVFPNELLWTADVHEYNLNLPVTPAAITYPETAAQIAGVVKCASDYDYKVQARSGGHSFGNYGLGGADGAVVVDMKHFNQFSMDDETYEAVIGPGTTLNDVDIELYNNGKRAMAHGVCPTIKTGGHFTIGGLGPTARQWGLALDHVEEVEVVLANSSIVRASNTQNQDVFFAVKGAAANFGIVTEFKVRTEPAPGLAVQYSYTFNLGSTAEKAQFVKDWQSFISAKNLTRQFYNNMVIFDGDIILEGLFFGSKEQYDALGLEDHFAPKNPGNILVLTDWLGMVGHALEDTILKLVGNTPTWFYAKSLGFRQDTLIPSAGIDEFFEYIANHTAGTPAWFVTLSLEGGAINDVAEDATAYAHRDVLFWVQLFMVNPVGPISDTTYEFTDGLYDVLARAVPESVGHAYLGCPDPRMEDAQQKYWRTNLPRLQELKEELDPKNTFHHPQGVMPA
B5: t865732 (protein)
chain: MGNTTSIAGRDCLISALGGNSALAVFPNELLWTADVHEYNLNLPVTPAAITYPETAAQIAGVVKCASDYDYKVQARSGGHSFGNYGLGGADGAVVVDMKHFTQFSMDDETYEAVIGPGTTLNDVDIELYNNGKRAMAHGVCPTIKTGGHFTIGGLGPTARQWGLALDHVEEVEVVLANSSIVRASNTQNQDVFFAVKGAAANFGIVTEFKVRTEPAPGLAVQYSYTFNLGSTAEKAQFVKDWQSFISAKNLTRQFYNNMVIFDGDIILEGLFFGSKEQYDALGLEDHFAPKNPGNILVLTDWLGMVGHALEDTILKLVGNTPTWFYAKSLGFRQDTLIPSAGIDEFFEYIANHTAGTPAWFVTLSLEGGAINDVAEDATAYAHRDVLFWVQLFMVNPVGPISDTTYEFTDGLYDVLARAVPESVGYAYLGCPDPRMEDAQQKYWRTNLPRLQELKEELDPKNTFHHPQGVMPA
B6: t865747 (protein)
chain: MGNTTSIAGRDCLISALGGNSALAVFPNELLWTADVHEYNLNLPVTPAAITYPETAAQIAGVVKCASDYDYKVQARSGGHSFGNYGLGGADGAVVVDMKHFTQFSMDDETYEAVIGPGTTLNDVDIELYNNGKRAMAHGVCPTIKTGGHFTIGGLGPTARQWGLALDHVEEVEVVLANSSIVRASNTQNQDVFFAVKGAAANFGIVTEFKVRTEPAPGLAVQYSYTFNLGSTAEKAQFVKDWQSFISAKNLTRQFYNNMVIFDGDIILEGLFFGSKEQYDALGLEDHFAPKNPGNILVLTDWLGMVGHALEDTILKLVGNTPTWFYAKSLGFRQDTLIPSAGIDEFFEYIANHTAGTPAWFVTLSLEGGAINDVAEDATAYAHRDVLFWVQLFMVNPAGPISDTTYEFTDGLYDVLARAVPESVGHAYLGCPDPRMEDAQQKYWRTNLPRLQELKEELDPKNTFHHPQGVMPA
modifications: expressed in S. cerevisiae strain

Experiments:
[1] = tested on: CBCA, THCA, and CBDA production; experiment: In vivo TS activity assay, Example 2 protein engineering of A. niger CBCAS, cultures fed olivetolic acid; assay type: cell-based, S. cerevisiae; conditions: for Mean CBCA / Mean CBDA / Mean THCA: secondary screen, olivetolic acid (Table 8); for % CBCA / % CBDA / % THCA: share of terminal cannabinoid product profile
Summary of the method: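 CBCA, THCA and CBDA were measured by LC-MS in methanol extracts of yeast cultures expressing mutant A. niger CBCAS. Cultures were induced at 20 °C with galactose and fed 1 mM olivetolic acid daily for 4 days, then buffered with 100 mM sodium citrate pH 5.5. Secondary screen: quadruplicates fed 1 mM olivetolic or divaric acid.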

[2] = tested on: CBCVA, THCVA, and CBDVA production; experiment: In vivo TS activity assay, Example 2 protein engineering of A. niger CBCAS, cultures fed divaric acid; assay type: cell-based, S. cerevisiae; conditions: for Mean CBCVA / Mean CBDVA / Mean THCVA: S. cerevisiae strains expressing A. niger CBCAS mutants; for Mean CBCVA / Mean CBDVA / Mean THCVA / average CBCVA titer compared with the A. niger positive control: secondary screen; for Mean CBCVA / Mean CBDVA / Mean THCVA / % CBCVA / % CBDVA / % THCVA: fed divaric acid; for % CBCVA / % CBDVA / % THCVA: share of terminal cannabinoid product profile
Summary of the method: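 Quantification by LC-MS of methanol-extracted production cultures, strains in quadruplicate. Yeast carrying mutant A. niger CBCAS (MFalpha2 N-terminal and HDEL C-terminal signal peptides) were induced 4 days at 20 °C in YEP+4% galactose fed 1 mM divaric acid, re-dosed every 24 h with 2% galactose and 1 mM divaric acid, after 2 days of dextrose preculture at 30 °C; 100 mM citrate pH 5.5 was then added for 2 more days.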

Row | Molecule | Mean CBCA [1] [µg/L] | Mean CBDA [1] [µg/L] | Mean THCA [1] [µg/L] | % CBCA [1] [%] | % CBDA [1] [%] | % THCA [1] [%] | Mean CBCVA [2] [µg/L] | Mean CBDVA [2] [µg/L] | Mean THCVA [2] [µg/L] | average CBCVA titer compared with the A. niger positive control [2] | % CBCVA [2] [%] | % CBDVA [2] [%] | % THCVA [2] [%]
1 | B1 | 19432.21 | 4507.57 | 1001.22 | 77.91 | 18.07 | 4.01 | 3729.91 | 0.00 | 1768.56 | higher | 67.84 | 0.00 | 32.16
2 | B2 | 31427.04 | 9022.22 | 2036.13 | 73.97 | 21.24 | 4.79 | 2864.87 | 0.00 | 1514.38 |  | 65.42 | 0.00 | 34.58
3 | B3 | 28669.67 | 7340.65 | 1640.20 | 76.15 | 19.50 | 4.36 | 5888.44 | 0.00 | 2516.89 | higher | 70.06 | 0.00 | 29.94
4 | B4 | 30758.44 | 7663.56 | 2146.00 | 75.82 | 18.89 | 5.29 | 2190.11 | 0.00 | 1153.25 |  | 65.51 | 0.00 | 34.49
5 | B5 | 22672.81 | 6720.79 | 1523.15 | 73.34 | 21.74 | 4.93 | 4734.85 | 0.00 | 2408.74 | higher | 66.28 | 0.00 | 33.72
6 | B6 | 18021.77 | 4783.24 | 1188.04 | 75.11 | 19.94 | 4.95 | 5571.51 | 0.00 | 2154.32 | higher | 72.12 | 0.00 | 27.88
